Data from PMC10151520, “TapA acts as specific chaperone in TasA filament formation by strand complementation” (Proceedings of the National Academy of Sciences of the …, 2023).
One block for each binder: values may come before it.

Columns and labels:
[1] = target: the molecule itself; experiment: time course of 1H solution NMR signals of the monomer; one-dimensional 1H spectra over time after mixing; TasA at 125 or 250 µM with TapA or TapA variants (e.g. 5:1); legend: 20 °C, pH 7, 150 mM NaCl
[2] = target: the molecule itself; experiment: SEC; gel filtration of TapA constructs, without DTT
[3] = target: T1, TasA (mature protein, residues 28 to 261) (Bacillus subtilis (strain 168), UniProt P54507); experiment: AUC (sedimentation velocity); 150 mM NaCl at pH 7 (no ITC response at 50 mM NaCl, pH 7); TapA-induced TasA oligomerization
T1 chain: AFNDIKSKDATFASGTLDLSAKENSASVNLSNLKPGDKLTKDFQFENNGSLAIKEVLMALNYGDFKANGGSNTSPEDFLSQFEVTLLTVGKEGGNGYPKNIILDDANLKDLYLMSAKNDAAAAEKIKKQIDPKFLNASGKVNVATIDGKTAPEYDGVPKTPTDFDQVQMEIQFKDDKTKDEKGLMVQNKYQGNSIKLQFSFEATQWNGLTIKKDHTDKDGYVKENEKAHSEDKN

[4] = target: T2, TasA (mature protein, residues 28 to 261) (Bacillus subtilis, UniProt P54507 28-261); experiment: AUC; sedimentation velocity of mixtures: 100 µM TasA with TapA (100, 70, 10, 4, 2 or 1 µM), TapA variants (100 µM) or 250 µM peptide; 20 °C, 20 mM Na phosphate pH 7.0, 150 mM NaCl, 40,000 rpm, runs of 17 h; settings: both partners purified
T2 construct: Used unlabelled or isotope-labelled (2H,13C,15N; 2H,15N; [2-13C]-glycerol) according to the experiment; also called translocation-dependent antimicrobial spore component; source: monomer separated by gel filtration
T2 sequence (looked up): T1 chain

B1: TasA_(28-239) (domain or fragment, Bacillus subtilis, UniProt P54507 28-239, looked up)
chain: AFNDIKSKDATFASGTLDLSAKENSASVNLSNLKPGDKLTKDFQFENNGSLAIKEVLMALNYGDFKANGGSNTSPEDFLSQFEVTLLTVGKEGGNGYPKNIILDDANLKDLYLMSAKNDAAAAEKIKKQIDPKFLNASGKVNVATIDGKTAPEYDGVPKTPTDFDQVQMEIQFKDDKTKDEKGLMVQNKYQGNSIKLQFSFEATQWNGLTIK
binding result [1]: binds

B2: TapA_(60-190) (domain or fragment, B. subtilis 168, UniProt P40949 60-190, looked up)
chain: DFQHTDKNCHYDKRWDQSDLHISDQTDTKGTVCSPFALFAVLENTGEKLKKSKWKWELHKLENARKPLKDGNVIEKGFVSNQIGDSLYKIETKKKMKPGIYAFKVYKPAGYPANGSTFEWSEPMRLAKCDE
notes: TapA of Bacillus subtilis 168, residues 60 to 190; Odd number of cysteines (free C68)
stoichiometry N [2]: 2

B3: TapA_(66-190) (domain or fragment, B. subtilis 168, UniProt P40949 66-190, looked up)
chain: KNCHYDKRWDQSDLHISDQTDTKGTVCSPFALFAVLENTGEKLKKSKWKWELHKLENARKPLKDGNVIEKGFVSNQIGDSLYKIETKKKMKPGIYAFKVYKPAGYPANGSTFEWSEPMRLAKCDE
notes: TapA of Bacillus subtilis 168, residues 66 to 190; Odd number of cysteines (free C68)
stoichiometry N [2]: 2

binding result [3]: binds
B4: TapA (mature protein, residues 44 to 253) (protein)
chain: AFHDIETFDVSLQTCKDFQHTDKNCHYDKRWDQSDLHISDQTDTKGTVCSPFALFAVLENTGEKLKKSKWKWELHKLENARKPLKDGNVIEKGFVSNQIGDSLYKIETKKKMKPGIYAFKVYKPAGYPANGSTFEWSEPMRLAKCDEKPTVPKKETKSDVKKENETTQKDIPEKTMKEETSQEAVTKEKETQSDQKESGEEDEKSNEADQ

binding result [4]: binds
B5: TapA_(44-190) (domain or fragment, B. subtilis 168, UniProt P40949 44-190, looked up)
chain: AFHDIETFDVSLQTCKDFQHTDKNCHYDKRWDQSDLHISDQTDTKGTVCSPFALFAVLENTGEKLKKSKWKWELHKLENARKPLKDGNVIEKGFVSNQIGDSLYKIETKKKMKPGIYAFKVYKPAGYPANGSTFEWSEPMRLAKCDE
notes: also called TapA without residues beyond E190; variant with deleted C terminus
